Laboratory results: the Immune Epitope Database (IEDB)

How the values were obtained:
HLA-B*40:01 = experiment: IEDB peptide-MHC binding, purified MHC/competitive/radioactivity; filed as Kd, often an IC50 or EC50 that approximates it; ≥ and ≤ were set here for values at or beyond the usual limits of such assays
HLA-B*44:02 = experiment: as above
HLA-B*44:03 = experiment: as above
HLA-A*32:01 = experiment: as above
HLA-A*02:01 [1] = experiment: IEDB peptide-MHC binding, purified MHC/direct/fluorescence; filed as Kd, often an IC50 or EC50 that approximates it; ≥ and ≤ were set here for values at or beyond the usual limits of such assays
HLA-A*69:01 = experiment: as above
HLA-B*07:02 = experiment: as above; settings: source organism: Haemophilus influenzae
HLA-B*15:01 = experiment: as above
HLA-B*08:01 = experiment: IEDB peptide-MHC binding, purified MHC/competitive/radioactivity; filed as Kd, often an IC50 or EC50 that approximates it; ≥ and ≤ were set here for values at or beyond the usual limits of such assays
HLA-A*02:01 [2] = experiment: IEDB peptide-MHC binding, purified MHC/competitive/fluorescence; ≥ and ≤ were set here for values at or beyond the usual limits of such assays
HLA-A*26:01 = experiment: IEDB peptide-MHC binding, purified MHC/competitive/radioactivity; filed as Kd, often an IC50 or EC50 that approximates it; ≥ and ≤ were set here for values at or beyond the usual limits of such assays
HLA-A*11:01 = experiment: IEDB peptide-MHC binding, purified MHC/direct/fluorescence; filed as Kd, often an IC50 or EC50 that approximates it; ≥ and ≤ were set here for values at or beyond the usual limits of such assays; settings: source organism: Homo sapiens
HLA-B*27:05 = experiment: as above; settings: source organism: Homo sapiens
HLA-A*01:01 = experiment: IEDB peptide-MHC binding, purified MHC/competitive/radioactivity; filed as Kd, often an IC50 or EC50 that approximates it; ≥ and ≤ were set here for values at or beyond the usual limits of such assays
HLA-A*23:01 = experiment: as above
HLA-A*24:02 = experiment: as above
HLA-A*29:02 = experiment: as above
HLA-A*30:02 = experiment: as above
HLA-A*03:01 = experiment: IEDB peptide-MHC binding, purified MHC/direct/fluorescence; filed as Kd, often an IC50 or EC50 that approximates it; ≥ and ≤ were set here for values at or beyond the usual limits of such assays; settings: source organism: Pasteurella multocida
HLA-B*58:01 = experiment: as above; settings: source organism: Pasteurella multocida
HLA-A*31:01 = experiment: IEDB peptide-MHC binding, purified MHC/competitive/radioactivity; filed as Kd, often an IC50 or EC50 that approximates it; ≥ and ≤ were set here for values at or beyond the usual limits of such assays; settings: source organism: Dengue virus 4 Philippines/H241/1956
HLA-A*33:01 = experiment: as above; settings: source organism: Dengue virus 4 Philippines/H241/1956
[3] = source organism: Dengue virus 1 Brazil/97-11/1997
[4] = source organism: Dengue virus 3 Martinique/1243/1999
[5] = source organism: Dengue virus 4 Dominica/814669/1981
[6] = source organism: Vaccinia virus WR
[7] = source organism: Haemophilus influenzae
[8] = source organism: Rickettsia conorii
[9] = source organism: Camelpox virus M-96
[10] = source organism: Dengue virus 2 Jamaica/1409/1983
[11] = source organism: Zaire ebolavirus
[12] = source organism: Dengue virus 4 Philippines/H241/1956
[13] = source organism: SARS coronavirus Tor2
[14] = source organism: Pasteurella multocida
[15] = source organism: Lassa virus Josiah
[16] = source organism: Dengue virus 1 Singapore/S275/1990
[17] = source organism: Mammarenavirus machupoense

In the case of AEALKGMPI, the Kd (HLA-B*40:01; [3]) is reported as 122 nM and the Kd (HLA-B*44:02; [3]) is reported as 1.01 nM.

In the case of AEIPLQWIAS, the Kd (HLA-B*40:01; [4]) is reported as 2240 nM and the Kd (HLA-B*44:02; [4]) is reported as 200 nM.

Work on AENTNSVTNI yielded a Kd (HLA-B*40:01; [5]) of 461 nM, a Kd (HLA-B*44:02; [5]) of 130 nM and a Kd (HLA-B*44:03; [5]) of 372 nM.

AIIAIVFVF gave a Kd (HLA-A*32:01; [6]) of 14100 nM.

AILGVLATL showed a Kd (HLA-A*02:01 [1]; [7]) of 316 nM, a Kd (HLA-A*69:01; [7]) of 238 nM and a Kd (HLA-B*07:02) of 12700 nM. It also gave a Kd (HLA-B*15:01; [7]) of 18500 nM.

Work on ASKVFFGPI yielded a Kd (HLA-B*08:01; [6]) of 12800 nM.

With ATIQRFSSL the Kd (HLA-B*08:01; [6]) was 3.34 nM.

For CIVNKFMSF, the Kd (HLA-B*08:01; [6]) was 60.4 nM.

DLAAGVDVV was tested, and the Kd (HLA-A*02:01 [1]; [8]) was 3240 nM and the Kd (HLA-A*69:01; [8]) was 1460 nM.

Sequence DLYDYITRI has a Kd (HLA-A*02:01 [1]; [9]) of 101 nM and a Kd (HLA-A*69:01; [9]) of 35.3 nM.

Work on EEEEQTLTI yielded a Kd (HLA-B*40:01; [10]) of 103 nM.

In the case of ELDHLGLDD, the IC50 (HLA-A*02:01 [2]; [11]) is reported as at least 513000 nM.

Work on EPIKHKYPL yielded a Kd (HLA-B*08:01; [6]) of 1.27 nM.

With EQMAPHHKIL the Kd (HLA-B*08:01; [12]) was 59.7 nM.

Work on ETRTETWMSS yielded a Kd (HLA-A*26:01; [10]) of 693 nM and a Kd (HLA-A*32:01; [10]) of 12800 nM.

FLLRRWGGT was tested, and the IC50 (HLA-A*02:01 [2]; source organism: Sudan ebolavirus) was 2020 nM.

Work on FTNAGIVAY yielded a Kd (HLA-A*32:01; [6]) of 149 nM.

Sequence GRNSFEVRV has a Kd (HLA-A*11:01) of at least 37700 nM and a Kd (HLA-B*27:05) of 1060 nM.

With GTFKKSGAI the Kd (HLA-A*32:01; [4]) was 4930 nM.

HKQWFLDLPL showed a Kd (HLA-B*08:01; [3]) of 57 nM.

Sequence HTILYNNTI has a Kd (HLA-A*32:01; [6]) of 1.88 nM.

For IFWRNTNPI, the Kd (HLA-A*01:01; [13]) was at least 78100 nM, the Kd (HLA-A*23:01; [13]) was 9150 nM and the Kd (HLA-A*24:02; [13]) was at least 31500 nM. The Kd (HLA-A*26:01; [13]) was at least 77900 nM, the Kd (HLA-A*29:02; [13]) was at least 35200 nM and the Kd (HLA-A*30:02; [13]) was at least 78900 nM.

ILYVSCNPA showed a Kd (HLA-A*03:01) of 402 nM, a Kd (HLA-A*69:01; [14]) of 572 nM and a Kd (HLA-B*15:01; [14]) of 748 nM. The Kd (HLA-B*58:01) was 572 nM.

With IMLVYCFLGY the Kd (HLA-A*01:01; [13]) was at least 31500 nM, the Kd (HLA-A*23:01; [13]) was at least 70000 nM and the Kd (HLA-A*24:02; [13]) was at least 70300 nM. It also gave a Kd (HLA-A*26:01; [13]) of at least 42700 nM, a Kd (HLA-A*29:02; [13]) of 3.05 nM and a Kd (HLA-A*30:02; [13]) of 211 nM.

ITQFETYQL was tested, and the Kd (HLA-A*32:01; [4]) was 1630 nM.

ITYEKSNNI was tested, and the Kd (HLA-A*32:01; [6]) was 17.5 nM.

KCWLVSNGSY gave a Kd (HLA-A*01:01; [15]) of 11500 nM, a Kd (HLA-A*23:01; [15]) of at least 70000 nM and a Kd (HLA-A*24:02; [15]) of at least 70300 nM. The Kd (HLA-A*26:01; [15]) was at least 69700 nM, the Kd (HLA-A*29:02; [15]) was 1530 nM and the Kd (HLA-A*30:02; [15]) was 11.4 nM.

In the case of KEEYVDYMPV, the Kd (HLA-B*40:01; [12]) is reported as 68.7 nM.

In the case of KEISSMLNIM, the Kd (HLA-B*40:01; [3]) is reported as 11.1 nM.

KGEDGCWYGM gave a Kd (HLA-A*32:01; [16]) of 1880 nM.

Sequence KLDISEATQ has an IC50 (HLA-A*02:01 [2]; [11]) of at least 96700 nM.

KSTDFLDPA was tested, and the IC50 (HLA-A*02:01 [2]; [11]) was 5050 nM.

KTIFLSEPY was tested, and the Kd (HLA-A*32:01; [6]) was 2.9 nM.

LAKLTEAIT was tested, and the IC50 (HLA-A*02:01 [2]; [11]) was 68400 nM.

LCEEGKVCY showed a Kd (HLA-A*01:01; [17]) of 7830 nM, a Kd (HLA-A*23:01; [17]) of at least 31600 nM and a Kd (HLA-A*24:02; [17]) of at least 77500 nM. It also gave a Kd (HLA-A*26:01; [17]) of at least 77900 nM, a Kd (HLA-A*29:02; [17]) of at least 45400 nM and a Kd (HLA-A*30:02; [17]) of 14200 nM.

Work on LDISEATQV yielded an IC50 (HLA-A*02:01 [2]; [11]) of at least 72600 nM.

With LKKNKAIKIL the Kd (HLA-B*08:01; [12]) was 11000 nM.

Work on LMINNMHSI yielded a Kd (HLA-A*32:01; [6]) of 13800 nM.

Sequence MEEALRGLPI has a Kd (HLA-B*40:01; [10]) of 54.2 nM, a Kd (HLA-B*44:02; [10]) of 29.3 nM and a Kd (HLA-B*44:03; [10]) of 1110 nM.

Sequence MEVTARWLWG has a Kd (HLA-A*32:01; [16]) of 3720 nM.

Work on MFGGVSWMVR yielded a Kd (HLA-A*31:01) of 17.2 nM, a Kd (HLA-A*32:01; [12]) of 952 nM and a Kd (HLA-A*33:01) of 4.59 nM.

Work on MGLDKGWPIS yielded a Kd (HLA-A*32:01; [3]) of 10100 nM.

Sequence MLNYVDYNI has a Kd (HLA-A*32:01; [6]) of 1.59 nM.

NCSSISIKL gave an IC50 (HLA-A*02:01 [2]; source organism: Vaccinia virus Copenhagen) of at least 437000 nM.

NIMPLFPTF was tested, and the Kd (HLA-B*08:01; [6]) was 48.1 nM.

PVSAMVRMY showed a Kd (HLA-A*01:01; [13]) of 11400 nM, a Kd (HLA-A*23:01; [13]) of at least 39200 nM and a Kd (HLA-A*24:02; [13]) of at least 40900 nM. It also gave a Kd (HLA-A*26:01; [13]) of at least 36700 nM, a Kd (HLA-A*29:02; [13]) of 2730 nM and a Kd (HLA-A*30:02; [13]) of 9130 nM.
